Source: PMC3794980

Legend:
Experiment in all cases: radioligand binding
[1] = biological target: HLA-DR DRB1*0301 (human (endogenous in EBV transformed cell lines))
[2] = biological target: HLA-DR DRB3*0101 (human (endogenous in EBV transformed cell lines))
[3] = biological target: HLA-DR DRB1*0401 (human (endogenous in EBV transformed cell lines))
[4] = biological target: HLA-DR DRB1*0101 (human (endogenous in EBV transformed cell lines))
[5] = biological target: HLA-DR DRB1*1101 (human (endogenous in EBV transformed cell lines))
[6] = biological target: HLA-DR DRB4*0101 (human (endogenous in EBV transformed cell lines))
[7] = biological target: HLA-DR DRB1*1501 (human (endogenous in EBV transformed cell lines))
[8] = biological target: HLA-DR DRB1*0701 (human (endogenous in EBV transformed cell lines))
[9] = biological target: HLA-DR DRB1*1302 (human (endogenous in EBV transformed cell lines))
[10] = biological target: HLA-DR DRB1*0802 (human (endogenous in EBV transformed cell lines))
[11] = biological target: HLA-DR DRB5*0101 (human (endogenous in EBV transformed cell lines))
[12] = biological target: HLA-DR DRB1*0901 (human (endogenous in EBV transformed cell lines))
[13] = biological target: HLA-DR DRB1*0405 (human (endogenous in EBV transformed cell lines))

For DENV3 NS3 413-427 (peptide), the IC50 [1] was 261 nM and the IC50 [2] was 96.1 nM.
DENV3 NS5 523-539 (peptide) was tested, and the IC50 [3] was 7.25 nM, the IC50 [1] was 9.29 nM and the IC50 [4] was 733 nM. The IC50 [5] was 170 nM, the IC50 [2] was 44.8 nM and the IC50 [6] was 445 nM.
DENV3 NS5 636-652 (peptide) gave an IC50 [7] of 453 nM and an IC50 [8] of 352 nM.
In the case of DENV3 NS3 429-443 (peptide), the IC50 [2] is reported as 5.72 nM.
In the case of DENV3 NS3 121-135 (peptide), the IC50 [1] is reported as 8.64 nM.
For DENV3 NS5 193-209 (peptide), the IC50 [4] was 87.5 nM, the IC50 [7] was 199 nM and the IC50 [8] was 144 nM. For the same substance, the IC50 [9] was 15.1 nM.
DENV3 NS5 658-674 (peptide) gave an IC50 [10] of 453 nM.
Work on DENV3 NS3 57-71 (peptide) yielded an IC50 [4] of 882 nM and an IC50 [7] of 196 nM.
With DENV3 NS3 313-327 (peptide) the IC50 [10] was 39.7 nM.
With DENV3 NS5 39-55 (peptide) the IC50 [2] was 749 nM and the IC50 [6] was 563 nM.
Work on DENV3 Envelope 346-360 (peptide) yielded an IC50 [3] of 343 nM, an IC50 [4] of 4.5 nM and an IC50 [7] of 332 nM. It also gave an IC50 [10] of 288 nM, an IC50 [8] of 67.6 nM and an IC50 [9] of 14.5 nM.
With DENV3 NS3 605-619 (peptide) the IC50 [11] was 19.6 nM, the IC50 [7] was 28.1 nM and the IC50 [10] was 36.8 nM.
DENV3 NS1 305-319 (peptide) showed an IC50 [1] of 841 nM.
DENV3 NS3 381-395 (peptide) gave an IC50 [2] of 399 nM.
DENV3 NS5 588-604 (peptide) was tested, and the IC50 [5] was 124 nM.
DENV3 NS5 336-352 (peptide) gave an IC50 [6] of 747 nM.
Work on DENV3 Envelope 171-185 (peptide) yielded an IC50 [4] of 62.6 nM, an IC50 [10] of 91.2 nM and an IC50 [6] of 787 nM.
For DENV3 NS5 576-592 (peptide), the IC50 [6] was 108 nM and the IC50 [9] was 297 nM.
DENV3 NS1 233-247 (peptide) was tested, and the IC50 [3] was 87 nM, the IC50 [1] was 72.6 nM and the IC50 [2] was 159 nM.
DENV3 NS5 290-306 (peptide) showed an IC50 [4] of 299 nM.
For DENV3 NS1 173-187 (peptide), the IC50 [3] was 502 nM, the IC50 [1] was 787 nM and the IC50 [12] was 608 nM. It also gave an IC50 [4] of 25.9 nM, an IC50 [11] of 753 nM and an IC50 [5] of 651 nM. It also gave an IC50 [2] of 57.5 nM.
In the case of DENV3 NS3 137-151 (peptide), the IC50 [4] is reported as 843 nM and the IC50 [7] is reported as 502 nM.
DENV3 NS1 225-239 (peptide) showed an IC50 [3] of 322 nM and an IC50 [9] of 58.9 nM.
DENV3 Envelope 126-140 (peptide) showed an IC50 [13] of 89.7 nM, an IC50 [4] of 980 nM and an IC50 [7] of 21.5 nM. For the same substance, the IC50 [10] was 37.1 nM and the IC50 [6] was 59.1 nM.
DENV3 Envelope 376-390 (peptide) showed an IC50 [4] of 476 nM, an IC50 [7] of 448 nM and an IC50 [10] of 84.6 nM. The IC50 [2] was 15.3 nM.
Substance DENV3 NS5 301-316 (peptide) has an IC50 [2] of 536 nM.
In the case of DENV3 NS5 511-527 (peptide), the IC50 [11] is reported as 611 nM and the IC50 [6] is reported as 56.7 nM.
For DENV3 NS1 313-327 (peptide), the IC50 [6] was 503 nM.
DENV3 NS3 357-371 (peptide) gave an IC50 [1] of 436 nM, an IC50 [12] of 100 nM and an IC50 [4] of 15.9 nM. The IC50 [11] was 273 nM, the IC50 [7] was 15.7 nM and the IC50 [2] was 711 nM. For the same substance, the IC50 [8] was 29.5 nM and the IC50 [6] was 759 nM.
In the case of DENV3 NS1 193-207 (peptide), the IC50 [2] is reported as 24.3 nM and the IC50 [6] is reported as 180 nM.
Work on DENV3 NS3 105-119 (peptide) yielded an IC50 [12] of 407 nM, an IC50 [4] of 49 nM and an IC50 [11] of 177 nM. The IC50 [10] was 175 nM and the IC50 [6] was 843 nM.
In the case of DENV3 NS3 69-83 (peptide), the IC50 [7] is reported as 29.5 nM.
DENV3 NS5 268-284 (peptide) gave an IC50 [6] of 869 nM.
With DENV3 NS3 349-363 (peptide) the IC50 [7] was 608 nM and the IC50 [2] was 221 nM.
DENV3 NS5 670-686 (peptide) gave an IC50 [11] of 478 nM and an IC50 [6] of 971 nM.
Substance DENV3 NS5 165-181 (peptide) has an IC50 [11] of 19.9 nM.
DENV3 NS3 109-123 (peptide) was tested, and the IC50 [4] was 148 nM and the IC50 [10] was 557 nM.
Work on DENV3 NS3 77-91 (peptide) yielded an IC50 [12] of 268 nM, an IC50 [7] of 52.1 nM and an IC50 [6] of 708 nM.
DENV3 NS3 125-139 (peptide) was tested, and the IC50 [1] was 47.2 nM.
DENV3 NS3 417-431 (peptide) was tested, and the IC50 [2] was 632 nM.
In the case of DENV3 NS3 53-67 (peptide), the IC50 [11] is reported as 329 nM.
Work on DENV3 NS1 293-307 (peptide) yielded an IC50 [8] of 83.2 nM and an IC50 [6] of 793 nM.
DENV3 NS5 284-300 (peptide) was tested, and the IC50 [3] was 306 nM, the IC50 [1] was 9.34 nM and the IC50 [2] was 17.1 nM.
In the case of DENV3 Envelope 121-135 (peptide), the IC50 [7] is reported as 404 nM.
DENV3 NS5 295-311 (peptide) was tested, and the IC50 [2] was 980 nM.
With DENV3 Envelope 301-315 (peptide) the IC50 [3] was 26.6 nM and the IC50 [10] was 58.9 nM.
With DENV3 NS3 113-127 (peptide) the IC50 [3] was 17.9 nM and the IC50 [4] was 226 nM.
